Here are results for 33 molecules from publication PMC9352680, “A comprehensive thermodynamic model for RNA binding by the Saccharomyces cerevisiae Pumilio protein PUF4”.

For this data set, the target named is T1, PUF4 RNA-binding domain (Saccharomyces cerevisiae, UniProt P25339 537-888).
T1 sequence: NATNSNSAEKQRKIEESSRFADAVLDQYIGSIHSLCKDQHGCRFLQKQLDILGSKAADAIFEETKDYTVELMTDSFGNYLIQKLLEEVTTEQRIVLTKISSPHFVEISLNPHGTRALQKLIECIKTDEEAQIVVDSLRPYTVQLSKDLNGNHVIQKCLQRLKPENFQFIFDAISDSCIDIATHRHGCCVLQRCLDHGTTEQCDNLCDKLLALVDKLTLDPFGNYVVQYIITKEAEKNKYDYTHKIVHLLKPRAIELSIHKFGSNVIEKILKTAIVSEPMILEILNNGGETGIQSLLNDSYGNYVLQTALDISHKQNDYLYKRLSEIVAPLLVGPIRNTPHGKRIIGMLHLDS
Kind of data set: Mg; RNA-MaP; 20 mM Na-HEPES pH 7.4, 30 mM KOAc, 0.75 mM MgCl2, 0.1% Tween-20, 5% glycerol, 0.1 mg/mL BSA, 2 mM DTT; 25 C; 0.0125-409.6 nM protein. The conditions noted are these: tags: N-His6-TEV cleaved; C-SNAP kept, Cy3B-labelled; label: tethered on chip by stalled RNA polymerase.

One may read the Kd as the concentration at which binding is half-saturated. A low value points to tighter binding. UCUCUUUGUAAUAGUAUCUCUU (ssRNA) [Ib_S1_P5E.1_K5.1_C5.1_H5.1_A5.1_[T5A]_F5.1_[T8G]_T5.1] showed a dissociation constant (Kd) of 21.4 nM.

B1: Id_ii_S2_P4E.4_K4.3_C4.2_[C-2A]_[T-1C]_H4.3_A4.1_F4.1_T4.2_[G10C] (ssRNA)
RNA: UUUGAUUAAUAUGAUAUCGUUCUUUCUACACACUAUUACUUUCUUUCUCGAUAUCAUAUUAAUCUUU
In turn, B1 came in with an equilibrium dissociation constant (Kd) greater than 2300 nM.

B2: Id_ii_S2_P4E.4_K4.3_C4.2_[C-2A]_H4.3_A4.1_F4.1_T4.2_[G10T] (ssRNA)
RNA: UUUGAUUAAUAUGAUAUCGUUCUUUCUAUACACUAUUAUUUUCUUUCUCGAUAUCAUAUUAAUCUUU
Take B2: binding was put at a Kd of 12.3 nM.

B3: Id_ii_S2_P4E.4_K4.3_C4.2_[T-1A]_H4.3_A4.1_F4.1_T4.2_[G10C] (ssRNA)
RNA: UUUGAUUAAUAUGAUAUCGUUCUUUCUCAACACUAUUACUUUCUUUCUCGAUAUCAUAUUAAUCUUU
B3 yielded a dissociation constant (Kd) greater than 2300 nM.

B4: Id_ii_S2_P4E.4_K4.3_C4.2_[T-1G]_H4.3_A4.1_F4.1_T4.2_[G10A] (ssRNA)
RNA: UUUGAUUAAUAUGAUAUCGUUCUUUCUCGACACUAUUAAUUUCUUUCUCGAUAUCAUAUUAAUCUUU
In turn, B4 had an equilibrium dissociation constant (Kd) greater than 2300 nM.

B5: Id_ii_S2_P4E.4_K4.3_C4.2_[T-1A]_H4.3_A4.1_F4.1_T4.2_[G10C]_[T11A] (ssRNA)
RNA: UUUGAUUAAUAUGAUAUCGUUCUUUCUCAACACUAUUACAUUCUUUCUCGAUAUCAUAUUAAUCUUU
Regarding B5, the Kd was greater than 2300 nM.

B6: Id_ii_S2_P4E.4_K4.3_C4.2_[T-1G]_H4.3_A4.1_F4.1_T4.2_[G10A]_[T11A] (ssRNA)
RNA: UUUGAUUAAUAUGAUAUCGUUCUUUCUCGACACUAUUAAAUUCUUUCUCGAUAUCAUAUUAAUCUUU
For B6, the Kd was greater than 2300 nM.

B7: Id_ii_S2_P4E.4_K4.3_C4.2_[C-2A]_H4.3_A4.1_F4.1_T4.2_[G10A]_[T11C] (ssRNA)
RNA: UUUGAUUAAUAUGAUAUCGUUCUUUCUAUACACUAUUAACUUCUUUCUCGAUAUCAUAUUAAUCUUU
For the molecule B7, binding was characterised by a dissociation constant (Kd) of 9.57 nM.

B8: Id_ii_S2_P4E.4_K4.3_C4.2_[T-1G]_H4.3_A4.1_F4.1_T4.2_[G10T]_[T11C] (ssRNA)
RNA: UUUGAUUAAUAUGAUAUCGUUCUUUCUCGACACUAUUAUCUUCUUUCUCGAUAUCAUAUUAAUCUUU
On to B8, for which the Kd was greater than 2300 nM.

B9: Id_ii_S2_P4E.4_K4.3_C4.2_[T-1C]_H4.3_A4.1_F4.1_T4.2_[G10C]_[T11C] (ssRNA)
RNA: UUUGAUUAAUAUGAUAUCGUUCUUUCUCCACACUAUUACCUUCUUUCUCGAUAUCAUAUUAAUCUUU
As to B9, the dissociation constant Kd was greater than 2300 nM.

B10: Id_ii_S2_P4E.4_K4.3_C4.2_[C-2A]_[T-1A]_H4.3_A4.1_F4.1_T4.2_[G10T]_[T11C] (ssRNA)
RNA: UUUGAUUAAUAUGAUAUCGUUCUUUCUAAACACUAUUAUCUUCUUUCUCGAUAUCAUAUUAAUCUUU
On to B10, for which the equilibrium dissociation constant (Kd) was greater than 2300 nM.

B11: Id_ii_S2_P4E.4_K4.3_C4.2_[T-1G]_H4.3_A4.1_F4.1_T4.2_[G10T] (ssRNA)
RNA: UUUGAUUAAUAUGAUAUCGUUCUUUCUCGACACUAUUAUUUUCUUUCUCGAUAUCAUAUUAAUCUUU
In turn, B11 came in with a Kd greater than 2300 nM.

B12: Id_ii_S2_P4E.4_K4.3_C4.2_[C-2A]_H4.3_A4.1_F4.1_T4.2_[G10C]_[T11C] (ssRNA)
RNA: UUUGAUUAAUAUGAUAUCGUUCUUUCUAUACACUAUUACCUUCUUUCUCGAUAUCAUAUUAAUCUUU
In turn, B12 registered a Kd of 10.8 nM.

B13: Id_ii_S2_P4E.4_K4.3_C4.2_[C-2A]_[T-1A]_H4.3_A4.1_F4.1_T4.2_[G10A] (ssRNA)
RNA: UUUGAUUAAUAUGAUAUCGUUCUUUCUAAACACUAUUAAUUUCUUUCUCGAUAUCAUAUUAAUCUUU
As for B13, the Kd is greater than 2300 nM.

B14: Id_ii_S2_P4E.4_K4.3_C4.2_[T-1C]_H4.3_A4.1_F4.1_T4.2_[G10A] (ssRNA)
RNA: UUUGAUUAAUAUGAUAUCGUUCUUUCUCCACACUAUUAAUUUCUUUCUCGAUAUCAUAUUAAUCUUU
Regarding B14, the Kd was greater than 2300 nM.

B15: Id_ii_S2_P4E.4_K4.3_C4.2_[T-1G]_H4.3_A4.1_F4.1_T4.2_[G10C] (ssRNA)
RNA: UUUGAUUAAUAUGAUAUCGUUCUUUCUCGACACUAUUACUUUCUUUCUCGAUAUCAUAUUAAUCUUU
B15 showed a Kd greater than 2300 nM.

B16: Id_ii_S2_P4E.4_K4.3_C4.2_[C-2A]_[T-1C]_H4.3_A4.1_F4.1_T4.2_[G10T]_[T11A] (ssRNA)
RNA: UUUGAUUAAUAUGAUAUCGUUCUUUCUACACACUAUUAUAUUCUUUCUCGAUAUCAUAUUAAUCUUU
B16: the equilibrium dissociation constant (Kd) was 592 nM. This counts as sub-micromolar.

B17: Id_ii_S2_P4E.4_K4.3_C4.2_[C-2A]_H4.3_A4.1_F4.1_T4.2_[G10C]_[T11G] (ssRNA)
RNA: UUUGAUUAAUAUGAUAUCGUUCUUUCUAUACACUAUUACGUUCUUUCUCGAUAUCAUAUUAAUCUUU
Take B17: the affinity, expressed as Kd, was 47.6 nM.

B18: Id_ii_S2_P4E.4_K4.3_C4.2_[C-2A]_[T-1C]_H4.3_A4.1_F4.1_T4.2_[G10T]_[T11C] (ssRNA)
RNA: UUUGAUUAAUAUGAUAUCGUUCUUUCUACACACUAUUAUCUUCUUUCUCGAUAUCAUAUUAAUCUUU
In turn, B18 displayed an equilibrium dissociation constant (Kd) greater than 2300 nM.

B19: Id_ii_S2_P4E.4_K4.3_C4.2_[C-2A]_[T-1A]_H4.3_A4.1_F4.1_T4.2_[G10C]_[T11C] (ssRNA)
RNA: UUUGAUUAAUAUGAUAUCGUUCUUUCUAAACACUAUUACCUUCUUUCUCGAUAUCAUAUUAAUCUUU
Take B19: the Kd was greater than 2300 nM.

B20: Id_ii_S2_P4E.4_K4.3_C4.2_[C-2A]_H4.3_A4.1_F4.1_T4.2_[G10T]_[T11C] (ssRNA)
RNA: UUUGAUUAAUAUGAUAUCGUUCUUUCUAUACACUAUUAUCUUCUUUCUCGAUAUCAUAUUAAUCUUU
B20 yielded a Kd of 10.3 nM. That is a double-digit nanomolar value.

B21: Id_ii_S2_P4E.4_K4.3_C4.2_[T-1C]_H4.3_A4.1_F4.1_T4.2_[G10T]_[T11A] (ssRNA)
RNA: UUUGAUUAAUAUGAUAUCGUUCUUUCUCCACACUAUUAUAUUCUUUCUCGAUAUCAUAUUAAUCUUU
On to B21, for which the dissociation constant Kd worked out at 594 nM.

B22: Id_ii_S2_P4E.4_K4.3_C4.2_[T-1C]_H4.3_A4.1_F4.1_T4.2_[G10T] (ssRNA)
RNA: UUUGAUUAAUAUGAUAUCGUUCUUUCUCCACACUAUUAUUUUCUUUCUCGAUAUCAUAUUAAUCUUU
B22 came in with a Kd of 2050 nM.

B23: Id_ii_S2_P4E.4_K4.3_C4.2_[T-1G]_H4.3_A4.1_F4.1_T4.2_[G10A]_[T11C] (ssRNA)
RNA: UUUGAUUAAUAUGAUAUCGUUCUUUCUCGACACUAUUAACUUCUUUCUCGAUAUCAUAUUAAUCUUU
On to B23, for which the Kd was greater than 2300 nM.

B24: Id_ii_S2_P4E.4_K4.3_C4.2_[C-2A]_[T-1C]_H4.3_A4.1_F4.1_T4.2_[G10A]_[T11A] (ssRNA)
RNA: UUUGAUUAAUAUGAUAUCGUUCUUUCUACACACUAUUAAAUUCUUUCUCGAUAUCAUAUUAAUCUUU
In turn, B24 had a Kd greater than 2300 nM.

B25: Id_ii_S2_P4E.4_K4.3_C4.2_[C-2A]_H4.3_A4.1_F4.1_T4.2_[G10C] (ssRNA)
RNA: UUUGAUUAAUAUGAUAUCGUUCUUUCUAUACACUAUUACUUUCUUUCUCGAUAUCAUAUUAAUCUUU
With B25, the Kd amounted to 9.11 nM.

B26: Id_ii_S2_P4E.4_K4.3_C4.2_[T-1C]_H4.3_A4.1_F4.1_T4.2 (ssRNA)
RNA: UUUGAUUAAUAUGAUAUCGUUCUUUCUCCACACUAUUAGUUUCUUUCUCGAUAUCAUAUUAAUCUUU
B26 registered a dissociation constant Kd greater than 2300 nM.

B27: Id_ii_S2_P4E.4_K4.3_C4.2_[T-1A]_H4.3_A4.1_F4.1_T4.2_[G10C]_[T11C] (ssRNA)
RNA: UUUGAUUAAUAUGAUAUCGUUCUUUCUCAACACUAUUACCUUCUUUCUCGAUAUCAUAUUAAUCUUU
Take B27: the Kd is greater than 2300 nM.

B28: Id_ii_S2_P4E.4_K4.3_C4.2_[C-2A]_H4.3_A4.1_F4.1_T4.2_[G10C]_[T11A] (ssRNA)
RNA: UUUGAUUAAUAUGAUAUCGUUCUUUCUAUACACUAUUACAUUCUUUCUCGAUAUCAUAUUAAUCUUU
With B28, the Kd worked out at 11.4 nM.

B29: Id_ii_S2_P4E.4_K4.3_C4.2_[T-1C]_H4.3_A4.1_F4.1_T4.2_[G10A]_[T11A] (ssRNA)
RNA: UUUGAUUAAUAUGAUAUCGUUCUUUCUCCACACUAUUAAAUUCUUUCUCGAUAUCAUAUUAAUCUUU
Regarding B29, the equilibrium dissociation constant (Kd) was greater than 2300 nM.

B30: Id_ii_S2_P4E.4_K4.3_C4.2_[C-2A]_[T-1A]_H4.3_A4.1_F4.1_T4.2_[G10C] (ssRNA)
RNA: UUUGAUUAAUAUGAUAUCGUUCUUUCUAAACACUAUUACUUUCUUUCUCGAUAUCAUAUUAAUCUUU
Take B30: the Kd is greater than 2300 nM. With UCUCUUUGUACUACUAUCUCUU (ssRNA) [Ib_S1_P5E.1_K5.1_C5.1_H5.1_A5.1_[T5C]_F5.1_[T8C]_T5.1] the figure was 10.9 nM. Then UCUCUUUGUAAUACUAUCUCUU (ssRNA) [Ib_S1_P5E.1_K5.1_C5.1_H5.1_A5.1_[T5A]_F5.1_[T8C]_T5.1], with 10.3 nM.
